# Source: paper PMC3618327, “Genetic and Biochemical Characterization of the MinC-FtsZ Interaction in Bacillus subtilis” (PLoS ONE, 2013)
# Substitutions are numbered along the chain they refer to. In names and notes the source's numbering stands.
# T1: MinC-His6, wild-type Bacillus subtilis MinC (B. subtilis, UniProt Q01463 1-226)
# T1 sequence (looked up): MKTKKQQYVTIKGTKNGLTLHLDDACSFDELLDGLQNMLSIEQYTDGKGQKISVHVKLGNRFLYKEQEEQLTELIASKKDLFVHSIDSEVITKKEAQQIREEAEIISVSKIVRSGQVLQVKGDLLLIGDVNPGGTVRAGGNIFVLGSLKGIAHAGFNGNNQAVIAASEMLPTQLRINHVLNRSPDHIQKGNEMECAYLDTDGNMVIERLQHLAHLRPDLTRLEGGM
# B1: His6-FtsZ R376T (natural protein, B. subtilis, UniProt P17865 1-382, looked up)
# chain: MLEFETNIDGLASIKVIGVGGGGNNAVNRMIENEVQGVEYIAVNTDAQALNLSKAEVKMQIGAKLTRGLGAGANPEVGKKAAEESKEQIEEALKGADMVFVTAGMGGGTGTGAAPVIAQIAKDLGALTVGVVTRPFTFEGRKRQLQAAGGISAMKEAVDTLIVIPNDRILEIVDKNTPMLEAFREADNVLRQGVQGISDLIATPGLINLDFADVKTIMSNKGSALMGIGIATGENRAAEAAKKAISSPLLEAAIDGAQGVLMNITGGTNLSLYEVQEAADIVASASDQDVNMIFGSVINENLKDEIVVTVIATGFIEQEKDVTKPQRPSLNQSIKTHNQSVPKREPKREEPQQQNTVSRHTSQPADDTLDIPTFLTNRNKRG
# notes: FtsZ of Bacillus subtilis, mutant in the C-terminal peptide (CTP); source: E. coli BL21(DE3)-RIL, purified (two-step ammonium sulfate and GTP+Ca2+ precipitation); not shown: His6, N-terminal, kept
# B2: His6-FtsZ, wild-type Bacillus subtilis FtsZ (natural protein, B. subtilis, UniProt P17865 1-382, looked up)
# chain: B1 chain with T376R
# notes: FtsZ of Bacillus subtilis, the ftsZ gene cloned into pET28a; also called WT; FtsZ^WT; source: E. coli BL21(DE3)-RIL, purified (two-step ammonium sulfate and GTP+Ca2+ precipitation); not shown: His6, N-terminal, kept
# B3: His6-FtsZ T111A (natural protein, B. subtilis, UniProt P17865 1-382, looked up)
# chain: B1 chain with T111A, T376R
# notes: FtsZ of Bacillus subtilis, promiscuous mutant in the N-terminal subdomain; source: E. coli BL21(DE3)-RIL, purified (two-step ammonium sulfate and GTP+Ca2+ precipitation); not shown: His6, N-terminal, kept
# B4: His6-FtsZ K243R (natural protein, B. subtilis, UniProt P17865 1-382, looked up)
# chain: B1 chain with K243R, T376R
# notes: FtsZ of Bacillus subtilis, mutant from the error-prone PCR library; source: E. coli BL21(DE3)-RIL, purified (two-step ammonium sulfate and GTP+Ca2+ precipitation); not shown: His6, N-terminal, kept
# B5: His6-FtsZ D287V (natural protein, B. subtilis, UniProt P17865 1-382, looked up)
# chain: B1 chain with D287V, T376R
# notes: as for B4
# B6: MinC Y44W (tryptophan mutant of Bacillus subtilis MinC) (natural protein, B. subtilis, UniProt Q01463 1-226, looked up)
# chain: T1 sequence (looked up) with Y44W
# notes: MinC of Bacillus subtilis with tryptophan at position 44 of the N-terminal domain; The methods name both His6-MinC (pET28a) and MinC-His6 (pET24b); also called tryptophan mutant MinC Y44W
# How the values were obtained:
# [1] = target: the molecule itself; experiment: sedimentation of polymers; 7 µM FtsZ in Mes/NaOH 50 mM, MgCl2 10 mM, KCl 133 mM, DEAE-dextran 0.6 mg/mL, pH 6.5, GTP 2 mM, room temperature, 100.000 rpm 15 min; pellet and supernatant on SDS-PAGE
# [2] = target: T1, MinC-His6, wild-type Bacillus subtilis …; experiment: cell-based or functional assay
# [3] = target: B2; experiment: other fluorescence titration; intrinsic Trp fluorescence of 1 µM MinC Y44W with 0.5-3 µM FtsZ in solution; Tris/HCl 20 mM, KCl 100 mM, EDTA 5 mM, pH 7.5; excitation 295 nm, emission 320-360 nm; the interaction was inhibited by salt (1 M KCl); details: both partners purified
"light scattering signal of FtsZ polymerization with MinC (7 µM FtsZ, 20 µM MinC) relative to the signal in the absence of MinC [2]",Kd [3],Binder,binding result [1]
70%,–,B1,binds
–,–,B2,binds
–,–,B3,binds
–,–,B4,binds
–,–,B5,binds
–,~1000 nM,B6,–
